Reference: patent publication US20090010911A1, “METHODS AND COMPOSITIONS FOR AFFECTING CYCLOPHILIN A REGULATION OF KINASES IN MODULATING CELLULAR ACTIVITIES” (IOWA STATE UNIVERSITY RESEARCH FOUNDATION, INC., priority 2007, published 2009)

Columns and labels:
Itk full-length enzyme [1] = biological target: T1, Itk full-length enzyme (Mus musculus, UniProt Q03526); assay: In vitro kinase assay with western blotting, phosphorylation of SH2 domain-containing substrates with added free SH2 domain or CypA; format: biochemical
T1 construct: Full-length Itk, Btk and Tec and the Itk kinase domain fragments were PCR amplified; made in house; host or cells: Sf9 insect cells (baculovirus), co-infected 1:1 with Lck baculovirus
T1 sequence (Q03526 1-625): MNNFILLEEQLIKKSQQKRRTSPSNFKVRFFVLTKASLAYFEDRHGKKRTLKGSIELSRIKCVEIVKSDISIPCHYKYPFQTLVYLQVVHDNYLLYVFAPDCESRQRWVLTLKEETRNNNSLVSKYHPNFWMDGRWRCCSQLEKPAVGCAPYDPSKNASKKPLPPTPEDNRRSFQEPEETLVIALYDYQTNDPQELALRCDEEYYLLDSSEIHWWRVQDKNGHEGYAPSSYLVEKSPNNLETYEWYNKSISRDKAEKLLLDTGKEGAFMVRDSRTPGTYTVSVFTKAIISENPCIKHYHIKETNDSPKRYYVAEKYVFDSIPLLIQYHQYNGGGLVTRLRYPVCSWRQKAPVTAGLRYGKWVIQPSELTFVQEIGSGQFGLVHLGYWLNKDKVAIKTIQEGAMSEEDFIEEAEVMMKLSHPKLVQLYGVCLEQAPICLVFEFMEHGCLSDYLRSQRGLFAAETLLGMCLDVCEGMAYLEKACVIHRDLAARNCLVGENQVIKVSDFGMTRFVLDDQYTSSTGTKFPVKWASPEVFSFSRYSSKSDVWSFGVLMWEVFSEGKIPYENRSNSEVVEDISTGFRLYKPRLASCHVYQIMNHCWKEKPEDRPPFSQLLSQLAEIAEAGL
Protocol: Substrate used in each experiment is indicated above each set of blots. 4(a) (left) Itk 32 substrate was incubated with Itk full-length enzyme as before (lane 1), or with Itk 32 domain:free Itk SH2 domain in ratios of 1:10, 1:25 or 1:50 (lanes 2-4, respectively) or equivalent ratios of PI3K N-terminal SH2 domain (lanes 5-7) and subjected to an in vitro kinase assay. […] Coomassie stain and an anti-FLAG blot (bottom panels) show protein levels. (right) The PLCγ1 SH2 domain competes with the PLCγ1 substrate in a similar manner. Lane 1 contains only Itk enzyme and PLCγ1 SH2C-Y783-substrate without additional free SH2 domain. Ratios of free SH2 domain to substrate are 1:5, 1:10 or 1:50 in lanes 2-4, respectively and equivalent ratios of PI3K SH2 domain are used in lanes 5-7. Coomassie stain of the gel and an anti-Itk blot (bottom panels) show protein levels. 4(b) Same experiment as shown in (a) using the Grb2 SH2 domain as a control. (left) Itk 32 substrate was incubated with Itk full-length enzyme (lane 1), or with Itk 32 domain:free Itk SH2 domain in ratios of 1:10 and 1:25 (lanes 2 & 3) or equivalent ratios of Grb2 SH2 domain (lanes 4 & 5) and subjected to an in vitro kinase assay. (right) Identical experiment following PLCγ1 substrate phosphorylation in the presence of the PLCγ1 and Grb2 SH2 domains. Lane 1 is PLCγ1 substrate alone; lanes 2 & 3 are PLCγ1 substrate:PLCγ1 SH2 domain in a 1:10 and 1:25 ratio, respectively and lanes 4 & 5 are identical ratios of PLCγ1 substrate:Grb2 SH2 domain. 4(c) The Itk SH2 domain competes with autophosphorylation of Y180 within full length Itk. For lanes 2-4, the amount of free SH2 domain is the same as used in panel (a), lanes 2-4. No exogenous SH2 domain has been added in lane 1 and full length Itk is both the enzyme and the substrate. Coomassie stain and an anti-FLAG blot (bottom panels) show protein levels. […] Initial velocities are shown for phosphorylation of peptide B (sequence shown in FIG. 5a) by full length Itk in the absence (column 1) and presence (column 2 and 3) of Itk SH2 domain. […]

full length Itk = biological target: T2, full length Itk (Mus musculus, UniProt Q03526); assay: In vitro Itk kinase assay using Peptide B as the substrate (initial velocities); format: biochemical; conditions: CypA to Itk 0 to 100 times excess; Itk 100 and 600 nM
T2 construct: made in house; host or cells: Sf9 insect cells (baculovirus), co-infected 1:1 with Lck baculovirus
T2 sequence (Q03526 1-625): T1 sequence (Q03526 1-625)
Protocol: Substrate used in each experiment is indicated above each set of blots. 4(a) (left) Itk 32 substrate was incubated with Itk full-length enzyme as before (lane 1), or with Itk 32 domain:free Itk SH2 domain in ratios of 1:10, 1:25 or 1:50 (lanes 2-4, respectively) or equivalent ratios of PI3K N-terminal SH2 domain (lanes 5-7) and subjected to an in vitro kinase assay. […] Coomassie stain and an anti-FLAG blot (bottom panels) show protein levels. (right) The PLCγ1 SH2 domain competes with the PLCγ1 substrate in a similar manner. Lane 1 contains only Itk enzyme and PLCγ1 SH2C-Y783-substrate without additional free SH2 domain. Ratios of free SH2 domain to substrate are 1:5, 1:10 or 1:50 in lanes 2-4, respectively and equivalent ratios of PI3K SH2 domain are used in lanes 5-7. Coomassie stain of the gel and an anti-Itk blot (bottom panels) show protein levels. 4(b) Same experiment as shown in (a) using the Grb2 SH2 domain as a control. (left) Itk 32 substrate was incubated with Itk full-length enzyme (lane 1), or with Itk 32 domain:free Itk SH2 domain in ratios of 1:10 and 1:25 (lanes 2 & 3) or equivalent ratios of Grb2 SH2 domain (lanes 4 & 5) and subjected to an in vitro kinase assay. […]
The ratio of CypA to Itk varied between o and 100 times excess CypA. […] No change in Peptide B phosphorylation is detected. […]

Itk = biological target: T3, Itk (Mus musculus, UniProt Q03526); assay: Pull-down experiment using purified Itk and purified CypA; format: binding; conditions: full length Itk or kinase domain alone immobilized on beads
T3 construct: Full-length Itk, Btk and Tec and the Itk kinase domain fragments were PCR amplified; made in house; host or cells: Sf9 insect cells (baculovirus), co-infected 1:1 with Lck baculovirus
T3 sequence (Q03526 1-625): T1 sequence (Q03526 1-625)
Protocol: In FIG. 16 full length Itk is immobilized on beads that are incubated with CypA. In FIG. 17 the kinase domain alone is immobilized on beads and incubated with CypA. […] The kinase domain alone contains the substrate docking site and so it is likely that CypA interacts with the Itk kinase domain in a manner that either completely or partially occludes the SH2 docking site.

Itk full-length enzyme [2] = biological target: T1, Itk full-length enzyme; conditions: published data (Brazin et al. 2002); cited from earlier work
Itk LKD enzyme = biological target: T4, Itk LKD enzyme (Mus musculus, UniProt Q03526); assay: Quantitative kinase assay, Km determination for Peptide B and PLCγ1 SH2C-Peptide B fusion; format: biochemical; conditions: phosphorylation by Itk LKD enzyme 0.9 μM, 200 μM ATP, room temperature
T4 construct: linker kinase domain (Itk LKD); made in house; host or cells: Sf9 insect cells (baculovirus), co-infected 1:1 with Lck baculovirus
T4 sequence (Q03526 344-625 limits assumed): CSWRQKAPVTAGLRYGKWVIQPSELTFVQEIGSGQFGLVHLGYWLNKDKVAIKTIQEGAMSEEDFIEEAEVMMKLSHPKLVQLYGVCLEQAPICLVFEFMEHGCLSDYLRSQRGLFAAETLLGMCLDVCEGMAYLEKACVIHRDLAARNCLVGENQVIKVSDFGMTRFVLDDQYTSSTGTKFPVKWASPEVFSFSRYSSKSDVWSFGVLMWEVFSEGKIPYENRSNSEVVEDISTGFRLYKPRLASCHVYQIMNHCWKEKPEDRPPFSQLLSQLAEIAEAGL
Description: 5(a) Construction of a PLCγ1 SH2C-Peptide B fusion protein was based on alignment of Y783 within the PLCγ1 linker and the Tyr of Peptide B. The 14 amino acids of Peptide B were used to replace the last 16 amino acids of PLCγ1 SH2C-Y783-. The Tyr that is phosphorylated in each substrate is boxed. A mutant construct is also shown that contains serine in place of the tyrosine of peptide B. This site was mutated to serine instead of phenylalanine due to solubility problems associated with the Tyr to Phe mutation. 5(b) FLAG-tagged Itk LKD enzyme (1 μM) was incubated with 20 μM of the PLCγ1 SH2C-Peptide B fusion protein (lane 4) or 20 μM of the PLCγ1 SH2C-Peptide B(YS) mutant protein (lane 5) in an in vitro kinase assay. Lanes 1-3 are Itk enzyme alone, PLCγ1 SH2C-Peptide B substrate alone and PLCγ1 SH2C-Peptide B(YS) substrate alone, respectively, that have each been subjected to the same in vitro kinase assay conditions. (c & d) FLAG-tagged Itk LKD enzyme was incubated with increasing amounts of biotinylated PLCγ1 SH2C-Peptide B 5(c) or biotinylated Peptide B alone 5(d) in an in vitro kinase assay. 5(e) Kinetic parameters describing phosphorylation of Peptide B and the PLCγ1 SH2C-Peptide B fusion protein by Itk. Data shown are the average of two independent experiments. […]

Grb2 SH2 domain: Grb2 SH2 domain, control SH2 domain [reference compound]
inhibition of PLCγ1 SH2C-Y783- substrate phosphorylation by free SH2 domain (Itk full-length enzyme [1]; substrate:free SH2 domain ratios 1:5 to 1:50): do not inhibit
inhibition of Itk 32 substrate phosphorylation (Y180) by free SH2 domain (Itk full-length enzyme [1]; substrate:free SH2 domain ratios 1:10, 1:25, 1:50): do not inhibit

CypA: peptidyl-prolyl isomerase Cyclophilin A, target of the immunosuppressive drug cyclosporin A
effect on phosphorylation of Itk SH3-SH2 protein substrate (Y180) (Itk full-length enzyme [1]; CypA:Itk 32 ratios 0.1:1, 1:1, 10:1, 25:1, signal reduced at 10:1 and 25:1): reduce phosphorylation
effect on phosphorylation kinetics of Peptide B (full length Itk): no effect
interaction with Itk (pull-down) (Itk): interacts directly with Itk
effect on autophosphorylation of Itk in an in vitro kinase assay (Itk full-length enzyme [2]): reduces autophosphorylation of Itk

Aminohexanoyl biotin-EQEDEPEGIYGVLF-NH2 [Peptide B, reference compound]
Km (Itk LKD enzyme): 87 µM
